Substrate in this series: N[C@@H](CC(=O)O)C(=O)O
Kind of series: purified protein. Format: biochemical, Plasmodium berghei. Particulars: 5 mM glutamine as amino donor, 10 mM ATP, 10 mM MgCl2, 50 mM Tris pH 8.0.

1 protein from publication PMC4659947, “Asparagine requirement in Plasmodium berghei as a target to prevent malaria transmission and liver infections” (Nature Communications, 2015) can be followed below.

B1: PbAS (recombinant P. berghei asparagine synthetase) (Plasmodium berghei ANKA) (protein)
chain: MCGILAIFHSSIETNRLRRKALRLSKILRHRGPDWNGIVVEENGDGTTNVLTHERLSIVDVLSGQQPLYDDKKEICLTINGEIYNHLELRKLVKQDILDALKSKSDCAIIPNLYKIYKEKLPCMLDGIFAGVISDKKYNTFFAFRDPIGICPLYIGYAADGSIWFASEFKALRIYCVRYVAFPPGHYYMCNNGKGEFVRYYNPNWWKLNSPIPNNKIDLEKIRITLENAVIKRLMGDVPFGVLLSGGLDSSIIASIISRHLKSIQTGTINNINGACVGKNNKNLNALKSFSIGLKDSPDLKAAKEVSDFLNTDHTEFHFTVDQGIDTLHDVIYHIETYDITTIRASTPMYILSRLIKSSCIKMVLSGEGSDEIFGGYLYFHKAPNAEEFHRELQRKIHDLHIYDVLRANKSTMAFGIEARVPFLDLEFLDLVMNIDPKEKMCSNNRIEKDILRRAFSGYLPDHILYRQKEQFSDGVGYNWIDGLKEYAEKKVSDAQFSRAPFLFPYNTPKTKEAYLYRCIFYQCFPEQCAQEFVPEGPSIACSTSKAIEWDEQFKVNPDQSGRYVLDVHKHSKNIEDIKAA
notes: full-length cDNA without stop codon in pET-20b(+), BamHI/XhoI, C-terminal 6xHis kept, E. coli Rosetta2DE3pLysS, Ni-NTA, 67 kDa; domains 1-202 and 203-581
The term Km denotes the concentration of substrate that gives half-maximal velocity. On to B1, for which the Km was 260 ± 50 µM.
